Laboratory results taken from patent US20050137128 (published 2005).
Square brackets hold non-standard residues; d marks the D form. * marks the point of attachment. NHOH = ON*

Biological target: Aβ1-40 fibril (Homo sapiens)
Assay: other, fibril binding 3-point assay

**Q.** Which Kd does the source give for Me-[dL][dV][dF][dF][dL]-{NHOH} [PPI-1800] here?
**A.** Its Kd is roughly 4 nM.
